From the supplement of paper PMC9732359
± gives the uncertainty stated by the source.

Test: protein stability index of a GFP-peptide fusion (yeast GPS) (PSI 1-4); higher = more stable; sorted into four equal gates, so the index is relative within each strain
Outline: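 Yeast carrying a pooled library were grown to mid-log phase in leucine-free medium. Each library plasmid expresses Cherry and has a tiled 17-residue yeast protein peptide fused downstream of GFP. Cells were sorted into four equal gates by GFP/Cherry ratio, and plasmids from each gate were PCR-amplified, Illumina-sequenced and assigned to strains by barcode. Summing, across gates, the read frequency times the gate number gave each peptide's protein stability index.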

VDNDNWVYKTKGDGMTS [RPN1]
protein stability index (doa10∆): 3.12 ± 0.1 | protein stability index (pdr5∆): 3.27 ± 0.065 | protein stability index (san1∆): 3 ± 0.071 | protein stability index (ubr1∆): 3.1 ± 0.11

KELQQLQKQILTVENKL [SMC1]
protein stability index (doa10∆): 1.74 ± 0.081 | protein stability index (pdr5∆): 1.99 ± 0.063 | protein stability index (san1∆): 1.98 ± 0.091 | protein stability index (ubr1∆): 2.18 ± 0.09

NAVSFDTTFSDFKEVED [SRB4]
protein stability index (doa10∆): 3.13 ± 0.043 | protein stability index (pdr5∆): 2.53 ± 0.039 | protein stability index (san1∆): 2.6 ± 0.039 | protein stability index (ubr1∆): 2.74 ± 0.039

AILLIINLTQTYGISVV [NUT1]
protein stability index (doa10∆): 1.53 ± 0.049 | protein stability index (pdr5∆): 1.34 ± 0.043 | protein stability index (san1∆): 1.7 ± 0.081 | protein stability index (ubr1∆): 1.43 ± 0.04

MGPLYQNFAEFMTKLLE [IRR1]
protein stability index (doa10∆): 2.27 ± 0.11 | protein stability index (pdr5∆): 1.82 ± 0.11 | protein stability index (san1∆): 3.03 ± 0.13 | protein stability index (ubr1∆): 2.04 ± 0.15

VFLYFEDNAGVIANPKG [RPL23A]
protein stability index (doa10∆): 2.43 ± 0.11 | protein stability index (pdr5∆): 1.96 ± 0.051 | protein stability index (san1∆): 2.27 ± 0.12 | protein stability index (ubr1∆): 1.9 ± 0.047

RKGGPATAEKLPNIYPS [RPT2]
protein stability index (doa10∆): 2.89 ± 0.13 | protein stability index (pdr5∆): 3.54 ± 0.25 | protein stability index (san1∆): 2.81 ± 0.13

FIDSICKLFDKISFNLR [SRB8]
protein stability index (doa10∆): 2.23 ± 0.054 | protein stability index (pdr5∆): 2.23 ± 0.046 | protein stability index (san1∆): 1.96 ± 0.063 | protein stability index (ubr1∆): 1.98 ± 0.053

KPDSDIVALSSEEINQY [PRE6]
protein stability index (doa10∆): 3.12 ± 0.05 | protein stability index (pdr5∆): 3.03 ± 0.047 | protein stability index (san1∆): 3.185 ± 0.03 | protein stability index (ubr1∆): 3.17 ± 0.034

LFLTAPDSCNMQEKAAH [YCS4]
protein stability index (pdr5∆): 2.67 ± 0.24 | protein stability index (san1∆): 2.86 ± 0.12 | protein stability index (ubr1∆): 2.92 ± 0.11

DIETQLCSMLQEASQVT [MED11]
protein stability index (doa10∆): 2.73 ± 0.1 | protein stability index (pdr5∆): 2.73 ± 0.11 | protein stability index (san1∆): 2.32 ± 0.11 | protein stability index (ubr1∆): 2.44 ± 0.074

QQTEHETEIKDLTQLLE [SMC4]
protein stability index (doa10∆): 3.44 ± 0.083 | protein stability index (pdr5∆): 3.26 ± 0.048 | protein stability index (san1∆): 3.31 ± 0.045 | protein stability index (ubr1∆): 3.34 ± 0.046

STSSGKVSYAVKKPQKS [SNM1]
protein stability index (doa10∆): 2.04 ± 0.13 | protein stability index (pdr5∆): 2.76 ± 0.1 | protein stability index (san1∆): 2.01 ± 0.17 | protein stability index (ubr1∆): 3.02 ± 0.16

CSNNKNSIKNVPPILII [SSN2]
protein stability index (doa10∆): 2.39 ± 0.16 | protein stability index (pdr5∆): 2.28 ± 0.098 | protein stability index (san1∆): 2.52 ± 0.17 | protein stability index (ubr1∆): 1.5 ± 0.085

LSSETGIKLALDPNLIT [SRB4]
protein stability index (doa10∆): 2.6 ± 0.052 | protein stability index (pdr5∆): 3 ± 0.054 | protein stability index (san1∆): 2.92 ± 0.056 | protein stability index (ubr1∆): 2.51 ± 0.034

IKKEEGKIDEAADILCE [RPN5]
protein stability index (doa10∆): 3.1 ± 0.096 | protein stability index (pdr5∆): 2.69 ± 0.12 | protein stability index (san1∆): 2.95 ± 0.11 | protein stability index (ubr1∆): 2.52 ± 0.069

NEIEGKNEETPQNEKPP [RPC25]
protein stability index (doa10∆): 2.76 ± 0.21 | protein stability index (pdr5∆): 3.14 ± 0.15 | protein stability index (san1∆): 2.22 ± 0.11 | protein stability index (ubr1∆): 3.3 ± 0.078

ANKTNLIESLNTIRQNV [YML103C/NUP188]
protein stability index (doa10∆): 1.57 ± 0.053 | protein stability index (pdr5∆): 1.83 ± 0.053 | protein stability index (san1∆): 1.73 ± 0.12 | protein stability index (ubr1∆): 1.77 ± 0.063

PTFTFGSSALADNKEDV [YLR335W/NUP2]
protein stability index (doa10∆): 3.13 ± 0.074 | protein stability index (pdr5∆): 3.06 ± 0.049 | protein stability index (san1∆): 3.06 ± 0.041 | protein stability index (ubr1∆): 3.09 ± 0.033

FLIDVLKIYAQIEKKEI [YCG1]
protein stability index (doa10∆): 1.26 ± 0.07 | protein stability index (pdr5∆): 1.93 ± 0.063 | protein stability index (san1∆): 1.21 ± 0.11 | protein stability index (ubr1∆): 1.4 ± 0.054

KDLDGWQVIITDDQGRV [SIR3]
protein stability index (doa10∆): 3.15 ± 0.093 | protein stability index (pdr5∆): 3.03 ± 0.077 | protein stability index (san1∆): 3.21 ± 0.068 | protein stability index (ubr1∆): 3.35 ± 0.064

GIVSVSDPQMKVFDTLT [RPN1]
protein stability index (doa10∆): 2.81 ± 0.16 | protein stability index (pdr5∆): 2.93 ± 0.12 | protein stability index (san1∆): 2.87 ± 0.16 | protein stability index (ubr1∆): 2.82 ± 0.13

ANLLPARQFGYVILTTS [RPS22A]
protein stability index (doa10∆): 1.29 ± 0.053 | protein stability index (pdr5∆): 1.35 ± 0.044 | protein stability index (san1∆): 1.2 ± 0.094 | protein stability index (ubr1∆): 1.11 ± 0.046

KEDADLKRMEILKSPHL [SIR4]
protein stability index (doa10∆): 2.88 ± 0.053 | protein stability index (pdr5∆): 2.95 ± 0.077 | protein stability index (san1∆): 2.99 ± 0.053 | protein stability index (ubr1∆): 3.08 ± 0.057

KKNIQKAKSNQTQREKA [IRR1]
protein stability index (doa10∆): 2.59 ± 0.099 | protein stability index (pdr5∆): 2.65 ± 0.11 | protein stability index (san1∆): 2.77 ± 0.11 | protein stability index (ubr1∆): 2.73 ± 0.066

LQPFYSQPTAAGGPDMT [DSN1]
protein stability index (doa10∆): 1.54 ± 0.049 | protein stability index (pdr5∆): 1.51 ± 0.047 | protein stability index (san1∆): 1.88 ± 0.077 | protein stability index (ubr1∆): 1.62 ± 0.039

FTPQEIEYCSAQPSVQS [FAS2]
protein stability index (doa10∆): 2.88 ± 0.27

NRERFISKLFLRGDSVI [SMD2]
protein stability index (doa10∆): 2.91 ± 0.076 | protein stability index (pdr5∆): 1.65 ± 0.089 | protein stability index (san1∆): 1.51 ± 0.14 | protein stability index (ubr1∆): 3.03 ± 0.15

LVLLNGRLRNKSHKQTI [RPP1]
protein stability index (doa10∆): 2.65 ± 0.088 | protein stability index (pdr5∆): 2.85 ± 0.059 | protein stability index (san1∆): 2.98 ± 0.047 | protein stability index (ubr1∆): 2.97 ± 0.061

KTKEAVAALKAVGAHSD [RPL4A]
protein stability index (doa10∆): 3.47 ± 0.087 | protein stability index (pdr5∆): 3.51 ± 0.067 | protein stability index (san1∆): 3.08 ± 0.096 | protein stability index (ubr1∆): 3.38 ± 0.062

FTAEGIVPDLIINPHAI [RPB2]
protein stability index (doa10∆): 2.24 ± 0.069 | protein stability index (pdr5∆): 2.36 ± 0.081 | protein stability index (san1∆): 2.08 ± 0.081 | protein stability index (ubr1∆): 2.67 ± 0.082

CRVDFKNPHDIIEGINA [RPL12A]
protein stability index (doa10∆): 2.19 ± 0.07 | protein stability index (pdr5∆): 2.45 ± 0.072 | protein stability index (san1∆): 1.83 ± 0.12 | protein stability index (ubr1∆): 2.43 ± 0.05

NTLNIDNTARVIFDASI [BRN1]
protein stability index (doa10∆): 2.14 ± 0.05 | protein stability index (pdr5∆): 2.28 ± 0.039 | protein stability index (san1∆): 2.23 ± 0.056 | protein stability index (ubr1∆): 2.37 ± 0.032

LTVAMYINSDSVNPAML [RPO31]
protein stability index (doa10∆): 2.4 ± 0.11 | protein stability index (pdr5∆): 2.47 ± 0.11 | protein stability index (san1∆): 2.69 ± 0.14 | protein stability index (ubr1∆): 2.68 ± 0.082

NKVSNTVSPTQDKDAIR [SIR2]
protein stability index (doa10∆): 2.98 ± 0.052 | protein stability index (pdr5∆): 3.26 ± 0.07 | protein stability index (san1∆): 3.17 ± 0.056 | protein stability index (ubr1∆): 3.11 ± 0.054

LYGLNLTLRKAKAPSGL [FAS1]
protein stability index (doa10∆): 2.92 ± 0.089 | protein stability index (pdr5∆): 2.17 ± 0.12 | protein stability index (san1∆): 3.53 ± 0.068 | protein stability index (ubr1∆): 2.42 ± 0.15

ERLMISSDAFEVDVCDK [RET1]
protein stability index (doa10∆): 2.31 ± 0.11 | protein stability index (pdr5∆): 2.63 ± 0.05 | protein stability index (san1∆): 2.04 ± 0.061 | protein stability index (ubr1∆): 2.21 ± 0.061

TFEKHDRVEDICERIFE [RRI2]
protein stability index (doa10∆): 2.68 ± 0.12 | protein stability index (pdr5∆): 3.05 ± 0.16 | protein stability index (san1∆): 3.15 ± 0.23

SSATIVLCLTRSSYMLE [YCG1]
protein stability index (doa10∆): 1.76 ± 0.035 | protein stability index (pdr5∆): 2.1 ± 0.038 | protein stability index (san1∆): 1.91 ± 0.048 | protein stability index (ubr1∆): 2.23 ± 0.032

PQQAQQQPNPLHGLTPT [GAL11]
protein stability index (doa10∆): 3 ± 0.068 | protein stability index (pdr5∆): 2.95 ± 0.042 | protein stability index (san1∆): 2.83 ± 0.051 | protein stability index (ubr1∆): 3.05 ± 0.035
